In patent US20040132157A1:
Blank lines part the entries; values can stand above or below the molecule they belong to.

Tests used:
[1] = target: recombinant human ADAM protein (metalloprotease region and disintegrin region expressed in Escherichia coli from plasmid pMDH) (human) (UniProt Q9UKQ2); assay: cell-based or functional assay
[2] = target: T1, Nma-Pro-Lys-Pro-Leu-Ala-Nva-Trp-Lys(DNP)-NH2
T1 chain: PKPLAXWK

[3] = target: T2, MOCAc-Arg-Pro-Lys-Pro-Tyr-Ala-Nva-Trp-Met-Lys(DNP)-NH2
T2 chain: RPKPYAXWMK

IC50 value (concentration of a test compound which 50% inhibits the protease activity) [1]: 100 µM
Molecule: N-CBZ-Pro-Leu-Gly-hydroxamate (Sigma C8537) (peptide)

B1: recombinant human ADAM protein (metalloprotease region and disintegrin region expressed in Escherichia coli from plasmid pMDH) (protein)
chain: VQEHEKYIEYYLVLDNGEFKRYNENQDEIRKRVFEMANYVNMLYKKLNTHVALVGMEIWTDKDKIKITPNASFTLENFSKWRGSVLSRRKRHDIAQLITATELAGTTVGLAFMSTMCSPYSVGVVQDHSDNLLRVAGTMAHEMGHNFGMFHDDYSCKCPSTICVMDKALSFYIPTDFSSCSRLSYDKFFEDKLSNCLFNAPLPTDIISTPICGNQLVEMGEDCDCGTSEECTNICCDAKTCKIKATFQCALGECCEKCQFKKAGMVCRPAKDECDLPEMCNGKSGNCPDDRFQVNGF
fluorescent intensity (excitation 340 nm, measuring 450 nm) after 2 hours at 37 C [2]: the fluorescent intensity in the case of addition of the enzyme solution was 180
fluorescent intensity (excitation 328 nm, 393 nm) after 22 hours at 37 C [3]: the fluorescent intensity of 70 was shown when the protein was added
